# Laboratory results as given in publication PMC4906247 (2016).
# B1: WT hDAPK2 expressed in HEK293T cells (CaM pull-down from lysate) [human] / calcium/calmodulin on Sepharose 4B (Sepharose 4B-CaM) [not stated] (parent complex)
# chain 1: MFQASMRSPNMEPFKQQKVEDFYDIGEELGSGQFAIVKKCREKSTGLEYAAKFIKKRQSRASRRGVSREEIEREVSILRQVLHHNVITLHDVYENRTDVVLILELVSGGELFDFLAQKESLSEEEATSFIKQILDGVNYLHTKKIAHFDLKPENIMLLDKNIPIPHIKLIDFGLAHEIEDGVEFKNIFGTPEFVAPEIVNYEPLGLEADMWSIGVITYILLSGASPFLGDTKQETLANITAVSYDFDEEFFSQTSELAKDFIRKLLVKETRKRLTIQEALRHPWITPVDNQQAMVRRESVVNLENFRKQYVRRRWKLSFSIVSLCNHLTRSLMKKVHLRPDEDLRNCESDTEEDIARRKALHPRRRSSTS
# chain 2: not shown
# Variants of: B1
# Experiment: CaM pull-down from HEK293T cell lysate, western blot; HEK293T transfected cells; EGTA-mediated elution on Sepharose 4B-CaM; read off a plot
row,Variant,response
1,chain 1 W315D,~1 relative unit (normalized to W305D)
2,"chain 1 R57E, chain 1 R60E, chain 1 R63E, chain 1 R64E, chain 1 W315D",~0.42 relative unit (normalized to W305D)
